# According to the supplement of paper PMC9112550, “Optimization of the antimicrobial peptide Bac7 by deep mutational scanning” (BMC Biology, 2022):
# Tested on: Escherichia coli TOP10
# Test: shrunken log2 fold change of peptide-encoding DNA abundance (4.5 h post-induction vs induction); higher = less antimicrobial activity (less host growth inhibition)
# Conditions: time post-induction: 4.5 h; library: site-saturation at positions 5, 18, 19, 20
# 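Also: peptides expressed intracellularly from a pBAD plasmid library in pooled LB shake-flask culture, induced with 0.3% L-arabinose, DNA abundance read by NGS, three biological replicates, DESeq2 with apeglm shrinkage.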
row,Sequence,shrunken log2 fold change
1,RRIRLRPPRLPRPRPRPRIMPRP,-0.333
2,RRIRLRPPRLPRPRPRPRKIPRP,0.103
3,RRIRLRPPRLPRPRPRPRKSPRP,0.376
4,RRIRLRPPRLPRPRPRPRMLPRP,-0.0478
5,RRIRLRPPRLPRPRPRPRMWPRP,0.458
6,RRIRLRPPRLPRPRPRPRQVPRP,-0.0496
7,RRIRLRPPRLPRPRPRPRRRPRP,0.395
8,RRIRLRPPRLPRPRPRPRTFPRP,-0.0808
9,RRIRLRPPRLPRPRPRPRTTPRP,0.182
10,RRIRLRPPRLPRPRPRPRVFPRP,-0.0171
11,RRIRLRPPRLPRPRPRPRVIPRP,0.0615
12,RRIRLRPPRLPRPRPRPRVMPRP,0.0356
13,RRIRLRPPRLPRPRPRPRVNPRP,-0.155
14,RRIRLRPPRLPRPRPRPSCNPRP,-0.661
15,RRIRLRPPRLPRPRPRPSCYPRP,-0.164
16,RRIRLRPPRLPRPRPRPSEGPRP,-0.501
17,RRIRLRPPRLPRPRPRPSEVPRP,-0.396
18,RRIRLRPPRLPRPRPRPSFVPRP,-0.392
19,RRIRLRPPRLPRPRPRPSILPRP,-0.57
20,RRIRLRPPRLPRPRPRPSLIPRP,-0.217
21,RRIRLRPPRLPRPRPRPSLPPRP,-0.0357
22,RRIRLRPPRLPRPRPRPSMFPRP,-0.498
23,RRIRLRPPRLPRPRPRPSNLPRP,-0.181
24,RRIRLRPPRLPRPRPRPSNYPRP,-0.53
25,RRIRLRPPRLPRPRPRPSQLPRP,-0.282

row,Sequence,shrunken log2 fold change
1,RRIRLRPPRLPRPRPRPSRPPRP,0.233
2,RRIRLRPPRLPRPRPRPSRYPRP,-0.0576
3,RRIRLRPPRLPRPRPRPSSCPRP,-0.277
4,RRIRLRPPRLPRPRPRPSSNPRP,-0.211
5,RRIRLRPPRLPRPRPRPSTFPRP,-0.33
6,RRIRLRPPRLPRPRPRPSVMPRP,-0.199
7,RRIRLRPPRLPRPRPRPSVRPRP,0.0468
8,RRIRLRPPRLPRPRPRPSWKPRP,0.132
9,RRIRLRPPRLPRPRPRPSWMPRP,-0.167
10,RRIRLRPPRLPRPRPRPSWPPRP,0.00705
11,RRIRLRPPRLPRPRPRPSWWPRP,1.77
12,RRIRLRPPRLPRPRPRPTFYPRP,-0.273
13,RRIRLRPPRLPRPRPRPTHMPRP,0.0883
14,RRIRLRPPRLPRPRPRPTHQPRP,0.592
15,RRIRLRPPRLPRPRPRPTICPRP,-0.176
16,RRIRLRPPRLPRPRPRPTMDPRP,-0.0334
17,RRIRLRPPRLPRPRPRPTMEPRP,0.274
18,RRIRLRPPRLPRPRPRPTMHPRP,0.0766
19,RRIRLRPPRLPRPRPRPTPRPRP,0.763
20,RRIRLRPPRLPRPRPRPTRRPRP,0.298
21,RRIRLRPPRLPRPRPRPTSGPRP,0.0882
22,RRIRLRPPRLPRPRPRPTSPPRP,-0.0576
23,RRIRLRPPRLPRPRPRPTTFPRP,0.0632
24,RRIRLRPPRLPRPRPRPTTVPRP,-0.175
25,RRIRLRPPRLPRPRPRPTWGPRP,0.637

row,Sequence,shrunken log2 fold change
1,RRIRLRPPRLPRPRPRPTYFPRP,-0.451
2,RRIRLRPPRLPRPRPRPTYIPRP,-0.304
3,RRIRLRPPRLPRPRPRPVAGPRP,0.0563
4,RRIRLRPPRLPRPRPRPVCHPRP,-0.274
5,RRIRLRPPRLPRPRPRPVCPPRP,0.149
6,RRIRLRPPRLPRPRPRPVDMPRP,-0.375
7,RRIRLRPPRLPRPRPRPVFIPRP,-0.454
8,RRIRLRPPRLPRPRPRPVFNPRP,-0.448
9,RRIRLRPPRLPRPRPRPVFPPRP,0.263
10,RRIRLRPPRLPRPRPRPVFRPRP,0.0694
11,RRIRLRPPRLPRPRPRPVFYPRP,-0.5
12,RRIRLRPPRLPRPRPRPVHNPRP,-0.281
13,RRIRLRPPRLPRPRPRPVICPRP,-0.16
14,RRIRLRPPRLPRPRPRPVKYPRP,-0.446
15,RRIRLRPPRLPRPRPRPVLLPRP,0.0821
16,RRIRLRPPRLPRPRPRPVNEPRP,-0.0825
17,RRIRLRPPRLPRPRPRPVPGPRP,0.113
18,RRIRLRPPRLPRPRPRPVQAPRP,-0.0131
19,RRIRLRPPRLPRPRPRPVRVPRP,0.428
20,RRIRLRPPRLPRPRPRPVSCPRP,-0.0041
21,RRIRLRPPRLPRPRPRPVTGPRP,-0.121
22,RRIRLRPPRLPRPRPRPVWDPRP,-0.0661
23,RRIRLRPPRLPRPRPRPVWHPRP,-0.047
24,RRIRLRPPRLPRPRPRPVWNPRP,0.2
25,RRIRLRPPRLPRPRPRPVYAPRP,0.00563

row,Sequence,shrunken log2 fold change
1,RRIRLRPPRLPRPRPRPWAGPRP,-0.0317
2,RRIRLRPPRLPRPRPRPWDAPRP,0.135
3,RRIRLRPPRLPRPRPRPWFDPRP,-0.365
4,RRIRLRPPRLPRPRPRPWGFPRP,-0.0515
5,RRIRLRPPRLPRPRPRPWHWPRP,0.019
6,RRIRLRPPRLPRPRPRPWHYPRP,-0.164
7,RRIRLRPPRLPRPRPRPWICPRP,-0.213
8,RRIRLRPPRLPRPRPRPWIGPRP,-0.177
9,RRIRLRPPRLPRPRPRPWKWPRP,-0.184
10,RRIRLRPPRLPRPRPRPWMNPRP,-0.0474
11,RRIRLRPPRLPRPRPRPWPFPRP,-0.0764
12,RRIRLRPPRLPRPRPRPWPIPRP,0.0461
13,RRIRLRPPRLPRPRPRPWPTPRP,0.0538
14,RRIRLRPPRLPRPRPRPWQYPRP,-0.0471
15,RRIRLRPPRLPRPRPRPWTDPRP,-0.279
16,RRIRLRPPRLPRPRPRPWTRPRP,-0.148
17,RRIRLRPPRLPRPRPRPWVLPRP,-0.0289
18,RRIRLRPPRLPRPRPRPWVWPRP,-0.199
19,RRIRLRPPRLPRPRPRPWWPPRP,0.0144
20,RRIRLRPPRLPRPRPRPWYRPRP,-0.3
21,RRIRLRPPRLPRPRPRPYCNPRP,-0.963
22,RRIRLRPPRLPRPRPRPYCRPRP,-0.256
23,RRIRLRPPRLPRPRPRPYEDPRP,-0.125
24,RRIRLRPPRLPRPRPRPYFEPRP,-0.453
25,RRIRLRPPRLPRPRPRPYHAPRP,-0.186

row,Sequence,shrunken log2 fold change
1,RRIRLRPPRLPRPRPRPYIGPRP,-0.129
2,RRIRLRPPRLPRPRPRPYIHPRP,-1.05
3,RRIRLRPPRLPRPRPRPYKHPRP,-0.619
4,RRIRLRPPRLPRPRPRPYLHPRP,-0.447
5,RRIRLRPPRLPRPRPRPYMWPRP,-1.05
6,RRIRLRPPRLPRPRPRPYNFPRP,-0.0404
7,RRIRLRPPRLPRPRPRPYQAPRP,0.0204
8,RRIRLRPPRLPRPRPRPYRIPRP,-0.796
9,RRIRLRPPRLPRPRPRPYRWPRP,-0.0173
10,RRIRLRPPRLPRPRPRPYSFPRP,-0.841
11,RRIRLRPPRLPRPRPRPYVAPRP,-0.602
12,RRIRLRPPRLPRPRPRPYVHPRP,-0.783
13,RRIRLRPPRLPRPRPRPYVSPRP,-0.0356
14,RRIRLRPPRLPRPRPRPYWQPRP,0.0322
15,RRIRLRPPRLPRPRPRPYYDPRP,-0.379
16,RRIRLRPPRLPRPRPRPYYHPRP,-0.712
17,RRIRLRPPRLPRPRPRPYYQPRP,-0.0534
18,RRIRMRPPRLPRPRPRPAANPRP,-0.00188
19,RRIRMRPPRLPRPRPRPACDPRP,0.974
20,RRIRMRPPRLPRPRPRPADFPRP,0.0087
21,RRIRMRPPRLPRPRPRPADHPRP,0.173
22,RRIRMRPPRLPRPRPRPADPPRP,0.36
23,RRIRMRPPRLPRPRPRPAEFPRP,1.15
24,RRIRMRPPRLPRPRPRPAEPPRP,0.449
25,RRIRMRPPRLPRPRPRPAHSPRP,0.111

row,Sequence,shrunken log2 fold change
1,RRIRMRPPRLPRPRPRPAIGPRP,0.0174
2,RRIRMRPPRLPRPRPRPAISPRP,0.0806
3,RRIRMRPPRLPRPRPRPALEPRP,0.347
4,RRIRMRPPRLPRPRPRPAMIPRP,-0.0626
5,RRIRMRPPRLPRPRPRPANQPRP,0.191
6,RRIRMRPPRLPRPRPRPANSPRP,0.0248
7,RRIRMRPPRLPRPRPRPAPPPRP,1.43
8,RRIRMRPPRLPRPRPRPARNPRP,-0.0385
9,RRIRMRPPRLPRPRPRPARYPRP,0.581
10,RRIRMRPPRLPRPRPRPATHPRP,-0.0207
11,RRIRMRPPRLPRPRPRPAVEPRP,0.741
12,RRIRMRPPRLPRPRPRPAVRPRP,0.835
13,RRIRMRPPRLPRPRPRPAWWPRP,0.879
14,RRIRMRPPRLPRPRPRPAYMPRP,-0.0929
15,RRIRMRPPRLPRPRPRPAYPPRP,0.0222
16,RRIRMRPPRLPRPRPRPCAMPRP,0.424
17,RRIRMRPPRLPRPRPRPCEEPRP,0.0566
18,RRIRMRPPRLPRPRPRPCFKPRP,0.145
19,RRIRMRPPRLPRPRPRPCGDPRP,0.34
20,RRIRMRPPRLPRPRPRPCIAPRP,0.099
21,RRIRMRPPRLPRPRPRPCKQPRP,0.0203
22,RRIRMRPPRLPRPRPRPCKWPRP,0.0169
23,RRIRMRPPRLPRPRPRPCPDPRP,-0.0886
24,RRIRMRPPRLPRPRPRPCPEPRP,0.123
25,RRIRMRPPRLPRPRPRPCPIPRP,-0.404
